For assay [1], the target named is HIV-1 Env (LAV) (HIV-1 (LAV)) (UniProt P03377). In words: cell-based or functional assay.
In assay [2] the target is HIV-1 wildtype (WT) SF162 Env (HIV-1 (SF162)) (UniProt P19550). The assay is described as follows: cell-based or functional assay.

In assay [1], MAb 17b (antibody) had a % control, Standard Assay (target cells with CXCR4 and CD4, no sCD4); 17b 0.1 µg/ml of 93.4 % control; a % control, Standard Assay (target cells with CXCR4 and CD4, no sCD4); 17b 0.5 µg/ml of 104 % control; a % control, Standard Assay (target cells with CXCR4 and CD4, no sCD4); 17b 1 µg/ml of 94.1 % control; a % control, Standard Assay (target cells with CXCR4 and CD4, no sCD4); 17b 5 µg/ml of 119 % control. In assay [1], the % control, sCD4 Assay (target cells with CXCR4 alone, sCD4 200 nM added); 17b 0.1 µg/ml is 114 % control; the % control, sCD4 Assay (target cells with CXCR4 alone, sCD4 200 nM added); 17b 0.5 µg/ml came to 39.2 % control; the % control, sCD4 Assay (target cells with CXCR4 alone, sCD4 200 nM added); 17b 1 µg/ml is 14.1 % control; the % control, sCD4 Assay (target cells with CXCR4 alone, sCD4 200 nM added); 17b 5 µg/ml came to 0 % control. Also, in assay [1], the β-gal, Standard Assay (target cells with CXCR4 and CD4, no sCD4); 17b 0.1 µg/ml; no MAb 42.3 amounted to 39.5; the β-gal, Standard Assay (target cells with CXCR4 and CD4, no sCD4); 17b 0.5 µg/ml amounted to 43.9; the β-gal, Standard Assay (target cells with CXCR4 and CD4, no sCD4); 17b 1 µg/ml is 39.8; the β-gal, Standard Assay (target cells with CXCR4 and CD4, no sCD4); 17b 5 µg/ml was 50.5. Moreover, in assay [1], the β-gal, sCD4 Assay (target cells with CXCR4 alone, sCD4 200 nM added); 17b 0.1 µg/ml; no MAb 11.89 was found to be 13.6; the β-gal, sCD4 Assay (target cells with CXCR4 alone, sCD4 200 nM added); 17b 0.5 µg/ml worked out at 4.66; the β-gal, sCD4 Assay (target cells with CXCR4 alone, sCD4 200 nM added); 17b 1 µg/ml came to 1.68; the β-gal, sCD4 Assay (target cells with CXCR4 alone, sCD4 200 nM added); 17b 5 µg/ml amounted to 0.

For “soluble CD4 (from UniProt P01730 26-208) (receptor)”, in assay [2], the Total β-gal, WT Env (SF162), duplicate 1; effector cells with Env, target cells with CCR5 and no CD4; + sCD4 (100 nM) was found to be 6.6; the Total β-gal, WT Env (SF162), mean; + sCD4 (100 nM); 0.45 without sCD4 amounted to 5.9.

(Values after patent EP1161455B1.)
